Residue numbers refer to the chain shown, from its start. Values joined by “and” are separate entries in the source; they are usually repeats but may differ in a detail not shown here. Equal entries are not always repeated.
B1: anti-CD47/anti-CLDN18.2 bispecific antibody B8 (bispecific antibody, human IgG1, kappa)
heavy: not shown
light: DIQMTQSPSSLSASVGDRVTITCRASQDISNHLNWYQQKPGKAPKLLIYYTSRIHSGVPSSFRGSGSGTDYTLTISSLQPEDIATYFCQQGYTLPFTFGSGTKLEIKRTVAAPSVFIFPPSDEQLKSGTASVVCLLNNFYPREAKVQWKVDNALQSGNSQESVTEQDSKDSTYSLSSTLTLSKADYEKHKVYACEVTHQGLSSPVTKSFNRGEC
notes: IgG-like format, human IgG1 / kappa constant regions
B2: anti-CD47/anti-CLDN18.2 bispecific antibody B9 (bispecific antibody, human IgG1, kappa)
heavy: not shown
light: QVQLVESGGGLVQPGGSLRLSCAASGSIFNIPVMGWYRQAPGKQRELVAGISTGGTTNYGDSVKGRFTISRDNAKNTVYLQMNSLKPEDTAVYYCNVLVVSGIGSTLEVWGQGTLVTVSSGGGGSGGGGSDIQMTQSPSSLSASVGDRVTITCRASQDISNHLNWYQQKPGKAPKLLIYYTSRIHSGVPSSFRGSGSGTDYTLTISSLQPEDIATYFCQQGYTLPFTFGSGTKLEIKRTVAAPSVFIFPPSDEQLKSGTASVVCLLNNFYPREAKVQWKVDNALQSGNSQESVTEQDSKDSTYSLSSTLTLSKADYEKHKVYACEVTHQGLSSPVTKSFNRGEC
notes: IgG-like format; NA3S-H1 VHH at the N-terminus of the light chain through Linker1
B3: anti-CD47/anti-CLDN18.2 bispecific antibody B10 (bispecific antibody, human IgG1, kappa)
heavy: not shown
light: B1 light
notes: IgG-like format; NA3S-H1 VHH at the C-terminus of the heavy chain through Linker1
B4: anti-CD47/anti-CLDN18.2 bispecific antibody B11 (bispecific antibody, human IgG1, kappa)
heavy: not shown
light: B2 light
notes: IgG-like format; NA3S-H1 VHH at the N-terminus of both heavy and light chains
B5: anti-CD47/anti-CLDN18.2 bispecific antibody B12 (bispecific antibody, human IgG1, kappa)
heavy: not shown
light: B1 light
notes: IgG-like format; NA3S-H1 VHH at the N-terminus of the heavy chain through Linker2 (GGGGS)
B6: anti-CD47 humanized antibody A7H3L3 (antibody, human IgG1, kappa, V domains shown)
VH: QVQLVQSGAEVKKPGASVKVSCKASGFNIKDIYIYWVRQAPGQGLEWIGKIDPANGNTKYDQKFQGRATITADTSTNTAYLELSSLRSEDTAVYYCARGYGSGFAYWGQGTLVTVSS
VL: DIQMTQSPSSLSASVGDRVTITCRASQDISNHLNWYQQKPGKAPKLLIYYTSRIHSGVPSSFRGSGSGTDYTLTISSLQPEDIATYFCQQGYTLPFTFGSGTKLEIKR
notes: also called A7H3L3 monoclonal antibody; anti-CD47 monoclonal antibody A7H3L3
B7: anti-CD47 antibody F4AM4-IgG1 (antibody, V domains shown)
VH: QVQLVQSGAEVKKPGASVKMSCKASGYTFTSSVMHWVRQAPGQGLEWIGYINPYTDGTKYAQKFQGRATLTSDKSTSTAYMEFSSLRSEDTAVYYCGRPYYGTRYGSWFAYWGQGTLVTVSS
VL: B6 VL with H32Y, I54L, S61R, R63S, S77N, F87Y, Y92K, T93N, L94Y
notes: Positive control anti-CD47 antibody developed by the applicant
B8: antibody 1F8 (the 1F8 antibody in WO 2018075857 A1) (antibody, V domains shown)
VH: KVQLVESGGGLVKPGGSLRLSCAASGFTFSNAWMNWVRQAPGKGLEWVGRIKRKTDGETTDYAAPVKGRFSISRDDSKNTLYLQMNSLKTEDTAVYYCAGSNRAFDIWGQGTMVTVSA
VL: DIVMTQSPDSLAVSLGERATINCKSSQSVLYSSNNRNYLAWYQQKPGQPPKLLINQASTRASGVPDRFSGSGSGTEFTLIISSLHAEDVAIYYCQQYYTPPLAFGGGTKLEIK

Experiments:
[1] = target: T1, human CD47 (human, UniProt Q08722 19-323); experiment: flow cytometry on human red blood cells, antibody at 15 µg/mL
T1 construct: whole, on cells; also called CD47 on red blood cells; endogenous CD47 on NUGC-4 cells
Description: (§1) Flow cytometry was used to determine whether the bispecific antibody was bound to red blood cells. Another anti-CD47 antibody F4AM4-IgG1 (abbreviated as F4AM4 in the accompanying drawings; the amino acid sequence of the heavy chain is SEQ ID NO: 24, and the amino acid sequence of the light chain is SEQ ID NO: 25) developed by the applicant was used as a positive control antibody.
(§2) The specific method was as follows: red blood cells were isolated from 1 mL of anticoagulant human blood, and the supernatant was aspirated following centrifugation. After the cells were rinsed twice with PBS, 1 mL of PBS was added to resuspend the red blood cells. The red blood cells were diluted to 1×10⁷/mL with PBS, pipetted at 50 μL/well and added to a 96-well round bottom cell culture plate. Then an equal volume of the serially diluted antibody to be tested was added, fully mixed, and incubated at 4° C. for 1 h. After the culture was rinsed with FACS buffer for three times, 0.5 μg of PE-labeled goat anti-human IgG Fc antibody (Abcam, ab98596) was added, followed by incubation at 4° C. for 1 h. Subsequently, the cells were rinsed with FACS buffer for three times and then resuspended by adding 200 μL of FACS buffer, and finally the amount of the antibody binding to the red blood cells (expressed as mean fluorescence intensity (MFI)) was measured by a flow cytometer (Beckman, CytoFLEX AOO-1-1102).

[2] = target: T1, human CD47; experiment: flow cytometry on human red blood cells, antibody at 150 µg/mL
Description: as §1, §2

[3] = target: T1, human CD47; experiment: flow cytometry, blocking of SIRPα-mFc binding to CD47 on hCLDN18.2-NUGC-4 cells
Description: (§3) The specific method was as follows: 1×10⁵ NUGC-4 cells or hCLDN18.2-NUGC-4 cells were taken and centrifuged at a low speed (300 g), and the supernatant was removed. The cells at the bottom of the centrifuge tube were rinsed once with a formulated FACS buffer (1×PBS buffer containing 2% FBS). Subsequently, the serially diluted antibody to be tested was added to the rinsed cells, which were then incubated for 1 h. After the cells were rinsed twice with FACS buffer, 100 μL of 1 μg/mL SIRPα-mFc (ACRO, SIA-H52A8) was added, followed by incubation at 4° C. for 1 h. After the cells were rinsed with FACS buffer for three times, 100 μL of 1:200 diluted PE-labeled goat anti-mouse Fc (Abcam, ab98742) was added as the secondary antibody, followed by incubation at 4° C. for 1 h. After centrifugation, the supernatant was removed, the cells were resuspended by adding 200 μL of FACS buffer, and finally the amount of SIRPα-mFc binding to the cells (expressed as mean fluorescence intensity (MFI)) was measured by a flow cytometer (Beckman, CytoFLEX AOO-1-1102).
Besides, due to the fact that the anti-CLDN18.2 single domain antibody NA3S-H1 was only bound to CLDN18.2, the antibody had no blocking effect.

[4] = target: T1, human CD47; experiment: flow cytometry, blocking of SIRPα-mFc binding to CD47 on NUGC-4 cells
Description: as §3

T1 sequence (Q08722 19-323): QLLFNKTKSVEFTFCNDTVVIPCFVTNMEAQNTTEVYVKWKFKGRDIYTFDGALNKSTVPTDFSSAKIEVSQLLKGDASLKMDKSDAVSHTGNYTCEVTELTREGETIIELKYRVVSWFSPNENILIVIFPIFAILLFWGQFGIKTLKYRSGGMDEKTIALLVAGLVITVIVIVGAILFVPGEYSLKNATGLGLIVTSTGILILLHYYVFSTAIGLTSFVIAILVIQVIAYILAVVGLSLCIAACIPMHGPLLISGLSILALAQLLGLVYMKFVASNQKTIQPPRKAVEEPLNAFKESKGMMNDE

Binder	MFI [1]	MFI [2]	IC50 [3]	IC50 [4]
B1	988 MFI	2140 MFI	–	–
B2	239 MFI	1220 MFI	–	–
B3	534 MFI	2490 MFI	0.765 µg/mL and 4.48 nM	–
B4	238 MFI	847 MFI	–	–
B5	1620 MFI	2530 MFI	–	–
B6	463 MFI	608 MFI	–	–
B7	–	–	0.056 µg/mL and 0.383 nM	0.033 µg/mL and 0.226 nM
B8	–	–	12 µg/mL and 82.3 nM	15.4 µg/mL and 106 nM
